B1: full length Tnk1 (72 kDa) (protein)
chain: MLPEAGSLWLLKLLRDIQLAQFYWPILEELNVTRPEHFDFVKPEDLDGIGMGRPAQRRLSEALKRLRSGPKSKNWVYKILGGFAPEHKEPTLPSDSPRHLPEPEGGLKCLIPEGAVCRGELLGSGCFGVVHRGLWTLPSGKSVPVAVKSLRVGPEGPMGTELGDFLREVSVMMNLEHPHVLRLHGLVLGQPLQMVMELAPLGSLHARLTAPAPTPPLLVALLCLFLRQLAGAMAYLGARGLVHRDLATRNLLLASPRTIKVADFGLVRPLGGARGRYVMGGPRPIPYAWCAPESLRHGAFSSASDVWMFGVTLWEMFSGGEEPWAGVPPYLILQRLEDRARLPRPPLCSRALYSLALRCWAPHPADRPSFSHLEGLLQEAGPSEACCVRDVTEPGALRMETGDPITVIEGSSSFHSPDSTIWKGQNGRTFKVGSFPASAVTLADAGGLPATRPVHRGTPARGDQHPGSIDGDRKKANLWDAPPARGQRRNMPLERMKGISRSLESVLSLGPRPTGGGSSPPEIRQARAVPQGPPGLPPRPPLSSSSPQPSQPSRERLPWPKRKPPHNHPMGMPGARKAAALSGGLLSDPELQRKIMEVELSVHGVTHQECQTALGATGGDVVSAIRNLKVDQLFHLSSRSRADCWRILEHYQWDLSAASRYVLARP

Key:
Grb2 = Grb2 (UniProt P62993)

Chain of Grb2, P62993 (P62993 whole entry, looked up): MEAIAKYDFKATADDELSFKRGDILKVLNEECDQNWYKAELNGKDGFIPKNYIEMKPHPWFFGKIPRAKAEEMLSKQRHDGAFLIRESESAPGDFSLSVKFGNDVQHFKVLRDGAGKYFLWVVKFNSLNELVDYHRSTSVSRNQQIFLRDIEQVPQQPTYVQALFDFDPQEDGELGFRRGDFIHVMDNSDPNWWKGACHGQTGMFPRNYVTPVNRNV

| Molecule | in vitro PTK activity assay (Y-phosphorylation of Grb2) (Grb2) | in vitro PTK activity assay (Y-phosphorylation of Grb2) (Grb2, P62993) |
| --- | --- | --- |
| 60 kDa truncated Tnk1-C17ORF61 fusion protein (tTnk1) | The t-Tnk1 showed none or weak Y-phosphorylation of Grb2 |  |
| B1 |  | Tnk1 from T47D or K562 Y-phosphorylated Grb2 |
